This is an account of results in PMC8557139, “Characterization of a thermotolerant aryl-alcohol oxidase from Moesziomyces antarcticus oxidizing 5-hydroxymethyl-2-furancarboxylic acid” (Applied Microbiology and Biotechnology, 2021).

The target of data set [1] is T1, MaAAO (Moesziomyces antarcticus, UniProt A0A081CNK9).
T1 construct: gene PAN0_057d6495; expressed with native signal peptide, secreted from Pichia pastoris X-33 (pPICZA); purified; non-covalent FAD; codon-optimised synthetic gene
T1 sequence (A0A081CNK9 20-638): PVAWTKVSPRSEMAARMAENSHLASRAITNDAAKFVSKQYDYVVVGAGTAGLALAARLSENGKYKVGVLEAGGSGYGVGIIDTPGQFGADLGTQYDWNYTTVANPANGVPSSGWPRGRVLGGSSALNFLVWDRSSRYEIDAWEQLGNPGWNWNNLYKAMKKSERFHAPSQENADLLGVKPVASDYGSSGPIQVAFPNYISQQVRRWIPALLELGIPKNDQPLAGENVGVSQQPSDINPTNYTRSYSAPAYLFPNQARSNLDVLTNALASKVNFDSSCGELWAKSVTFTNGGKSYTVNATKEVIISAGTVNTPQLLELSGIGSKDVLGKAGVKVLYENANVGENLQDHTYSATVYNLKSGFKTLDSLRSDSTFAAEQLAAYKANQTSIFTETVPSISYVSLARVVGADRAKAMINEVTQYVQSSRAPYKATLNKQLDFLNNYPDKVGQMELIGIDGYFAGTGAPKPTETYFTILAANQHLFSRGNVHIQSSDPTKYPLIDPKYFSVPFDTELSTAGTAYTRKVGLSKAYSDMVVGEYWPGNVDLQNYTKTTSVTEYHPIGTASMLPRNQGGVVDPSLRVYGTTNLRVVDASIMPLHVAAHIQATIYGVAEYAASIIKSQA
The data set is described as follows: benzaldehyde formation at […] nm; substrate excess inhibition fit. It is filed as biochemical. The note with it: co-substrate O2, 100 mM phosphate pH 6.0, 25 °C.

Data set [2] concerns the target T1, MaAAO. The data set is described as follows: coupled […],6-DMP-HRP assay; substrate excess inhibition fit. In kind it is biochemical. The following applies: co-substrate O2, potassium phosphate pH 6.0, 25 °C.
Data set [3] addresses T1, MaAAO. The data set is described as follows: UV/Vis spectrum of native and heat-denatured enzyme. It is filed as binding. The following applies: non-covalently bound.
Data set [4] concerns the target T1, MaAAO. The data set is described as follows: m-anisaldehyde formation at […] nm; substrate excess inhibition fit. The following applies: co-substrate O2, 100 mM phosphate pH 6.0, 25 °C. It is filed as biochemical.
Substrate in data set [5]: C/C=C/C=C/CO
The data set is described as follows: purified protein. In kind it is biochemical, Moesziomyces antarcticus. The note with it: co-substrate O2, 100 mM phosphate pH 6.0, 25 °C.

Substrate in data set [6]: C=C(C)[C@@H]1CC=C(CO)CC1
The data set is described as follows: purified protein. The note with it: co-substrate O2, 50 mM (text: 100 mM) potassium phosphate pH 6.0, 25 °C. It is filed as biochemical, Moesziomyces antarcticus.

Substrate in data set [7]: COc1cc(CO)ccc1O
The data set is described as follows: purified protein. The note with it: co-substrate O2, 100 mM phosphate pH 6.0, 25 °C. It is filed as biochemical, Moesziomyces antarcticus.

Substrate in data set [8]: COc1ccc(CO)c(OC)c1
The data set is described as follows: purified protein. In kind it is biochemical, Moesziomyces antarcticus. The following applies: co-substrate O2, 100 mM phosphate pH 6.0, 25 °C.

Substrate in data set [9]: COc1ccc(CO)cc1O
The data set is described as follows: purified protein. In kind it is biochemical, Moesziomyces antarcticus. The following applies: co-substrate O2, 100 mM phosphate pH 6.0, 25 °C.

Substrate in data set [10]: COc1ccc(CO)cc1OC
The data set is described as follows: purified protein. It is filed as biochemical, Moesziomyces antarcticus. The note with it: co-substrate O2, 100 mM phosphate pH 6.0, 25 °C.

Substrate in data set [11]: Nc1cccc(CO)c1
The data set is described as follows: purified protein. The note with it: co-substrate O2, 50 mM (text: 100 mM) potassium phosphate pH 6.0, 25 °C, fit with substrate excess inhibition. In kind it is biochemical, Moesziomyces antarcticus.

Substrate in data set [12]: O=Cc1ccc(CO)o1
The data set is described as follows: purified protein. In kind it is biochemical, Moesziomyces antarcticus. The following applies: co-substrate O2, 50 mM (text: 100 mM) potassium phosphate pH 6.0, 25 °C.

Substrate in data set [13]: OC/C=C/c1ccccc1
The data set is described as follows: purified protein. In kind it is biochemical, Moesziomyces antarcticus. The note with it: co-substrate O2, 100 mM phosphate pH 6.0, 25 °C.

Substrate in data set [14]: OCc1ccc2c(c1)OCO2
The data set is described as follows: purified protein. It is filed as biochemical, Moesziomyces antarcticus. The following applies: co-substrate O2, 100 mM phosphate pH 6.0, 25 °C.

Substrate in data set [15]: OCc1ccccc1
The data set is described as follows: purified protein. In kind it is biochemical, Moesziomyces antarcticus. The note with it: co-substrate O2, 100 mM phosphate pH 6.0, 25 °C, fit with substrate excess inhibition.

In data set [1], `OCc1ccccc1` [Benzyl alcohol] returned a KIU of 1.39 ± 0.35 mM.
`Nc1cccc(CO)c1` [3-Aminobenzyl alcohol]: the KIU in [2] was 3.27 ± 0.98 mM.
On to `Cc1cc2nc3c(=O)[nH]c(=O)nc-3n(C[C@H](O)[C@H](O)[C@H](O)COP(=O)(O)OP(=O)(O)OC[C@H]3O[C@@H](n4cnc5c(N)ncnc54)[C@H](O)[C@@H]3O)c2cc1C` [FAD], for which the “UV/Vis spectrum of native and heat-denatured enzyme” value in data set [3] is given as “confirmed that MaAAO contains a non-covalently bound FAD cofactor”.
In data set [4], `COc1cccc(CO)c1` [m-Anisyl alcohol] registered a KIU of 2.09 ± 0.33 mM.

B1: MaAAO (Moesziomyces antarcticus) (protein)
chain: PVAWTKVSPRSEMAARMAENSHLASRAITNDAAKFVSKQYDYVVVGAGTAGLALAARLSENGKYKVGVLEAGGSGYGVGIIDTPGQFGADLGTQYDWNYTTVANPANGVPSSGWPRGRVLGGSSALNFLVWDRSSRYEIDAWEQLGNPGWNWNNLYKAMKKSERFHAPSQENADLLGVKPVASDYGSSGPIQVAFPNYISQQVRRWIPALLELGIPKNDQPLAGENVGVSQQPSDINPTNYTRSYSAPAYLFPNQARSNLDVLTNALASKVNFDSSCGELWAKSVTFTNGGKSYTVNATKEVIISAGTVNTPQLLELSGIGSKDVLGKAGVKVLYENANVGENLQDHTYSATVYNLKSGFKTLDSLRSDSTFAAEQLAAYKANQTSIFTETVPSISYVSLARVVGADRAKAMINEVTQYVQSSRAPYKATLNKQLDFLNNYPDKVGQMELIGIDGYFAGTGAPKPTETYFTILAANQHLFSRGNVHIQSSDPTKYPLIDPKYFSVPFDTELSTAGTAYTRKVGLSKAYSDMVVGEYWPGNVDLQNYTKTTSVTEYHPIGTASMLPRNQGGVVDPSLRVYGTTNLRVVDASIMPLHVAAHIQATIYGVAEYAASIIKSQA
notes: expressed with native signal peptide, secreted from Pichia pastoris X-33 (pPICZA); purified; non-covalent FAD; codon-optimised synthetic gene
A word on the Km: it is the concentration of substrate that gives half-maximal velocity. As usually defined, the kcat is the maximal rate divided by the concentration of active sites. What is called kcat/Km is the second-order rate constant that governs catalysis at low substrate concentration. With B1, the Km turned out to be 26.5 ± 1.7 µM in data set [5]; 23.7 ± 1.7 µM in data set [6]; 30.0 ± 2.4 µM in [7]; 582 µM in data set [8]; 60.9 ± 6.7 µM in [9]; 119.0 ± 7.0 µM in [10]. The Km in data set [11] stood at 1.74 ± 0.24 µM; in [12], 341 ± 20 µM; in data set [13], 26.9 µM; in data set [14], 12.2 ± 1.0 µM. Moreover, the kcat amounted to 11.5 s⁻¹ in [5]; 9.2 s⁻¹ in data set [6]; 10.6 s⁻¹ in data set [7]; 9.6 s⁻¹ in [9]; 11.7 s⁻¹ in data set [10]; 6.4 s⁻¹ in [11]. In addition, the kcat in data set [12] was determined as 5.4 s⁻¹; in data set [13], 8.9 s⁻¹; in data set [14] it was 11.3 s⁻¹; in data set [15], 11.2 s⁻¹. Besides, the kcat/Km in data set [5] was 435000 M⁻¹ s⁻¹; in [6], 387000 M⁻¹ s⁻¹; in data set [7] it was 354000 M⁻¹ s⁻¹; in data set [9], 158000 M⁻¹ s⁻¹; in data set [10], 98000 M⁻¹ s⁻¹; in data set [11], 3.67e+06 M⁻¹ s⁻¹. In addition, the kcat/Km in data set [12] is 15700 M⁻¹ s⁻¹; in data set [13], 332000 M⁻¹ s⁻¹; in [14] it was 926000 M⁻¹ s⁻¹; in data set [15] it was 745000 M⁻¹ s⁻¹.
